The text below walks through data of paper PMC4158885 (The EMBO Journal, 2014).

Series [1] concerns the target ctPan2 PID (Pan3 interaction domain) as used for surface plasmon resonance and isothermal titration calorimetry (Chaetomium thermophilum). Briefly: ITC; ctPan3 PKC with ctPan2 PID; low protein concentrations, which limits the accuracy of the Kd. In general terms: Isothermal titration calorimetry measures the heat released or taken up as one component is titrated into another.

For series [2] the target is unchanged. The series can be described thus: SPR; ctPan3 PKC with ctPan2 PID; who was immobilised is not shown (Supplementary Fig S7A–C). Background: SPR reads the build-up and loss of mass on a sensor chip optically.
Series [3] deals with the molecule itself. The series can be described thus: native MS; nanoESI-MS of the purified recombinant scPan2–Pan3 complex (5.5 mg/ml), buffer-exchanged into 200 mM ammonium acetate pH 8.0.
The target in series [4] is T1, Saccharomyces cerevisiae Pan2 (scPan2), full length, of the recombinant scPan2–Pan3 complex (Saccharomyces cerevisiae, UniProt P53010 1-1115).
T1 construct: Pan2, Saccharomyces cerevisiae
T1 sequence (looked up): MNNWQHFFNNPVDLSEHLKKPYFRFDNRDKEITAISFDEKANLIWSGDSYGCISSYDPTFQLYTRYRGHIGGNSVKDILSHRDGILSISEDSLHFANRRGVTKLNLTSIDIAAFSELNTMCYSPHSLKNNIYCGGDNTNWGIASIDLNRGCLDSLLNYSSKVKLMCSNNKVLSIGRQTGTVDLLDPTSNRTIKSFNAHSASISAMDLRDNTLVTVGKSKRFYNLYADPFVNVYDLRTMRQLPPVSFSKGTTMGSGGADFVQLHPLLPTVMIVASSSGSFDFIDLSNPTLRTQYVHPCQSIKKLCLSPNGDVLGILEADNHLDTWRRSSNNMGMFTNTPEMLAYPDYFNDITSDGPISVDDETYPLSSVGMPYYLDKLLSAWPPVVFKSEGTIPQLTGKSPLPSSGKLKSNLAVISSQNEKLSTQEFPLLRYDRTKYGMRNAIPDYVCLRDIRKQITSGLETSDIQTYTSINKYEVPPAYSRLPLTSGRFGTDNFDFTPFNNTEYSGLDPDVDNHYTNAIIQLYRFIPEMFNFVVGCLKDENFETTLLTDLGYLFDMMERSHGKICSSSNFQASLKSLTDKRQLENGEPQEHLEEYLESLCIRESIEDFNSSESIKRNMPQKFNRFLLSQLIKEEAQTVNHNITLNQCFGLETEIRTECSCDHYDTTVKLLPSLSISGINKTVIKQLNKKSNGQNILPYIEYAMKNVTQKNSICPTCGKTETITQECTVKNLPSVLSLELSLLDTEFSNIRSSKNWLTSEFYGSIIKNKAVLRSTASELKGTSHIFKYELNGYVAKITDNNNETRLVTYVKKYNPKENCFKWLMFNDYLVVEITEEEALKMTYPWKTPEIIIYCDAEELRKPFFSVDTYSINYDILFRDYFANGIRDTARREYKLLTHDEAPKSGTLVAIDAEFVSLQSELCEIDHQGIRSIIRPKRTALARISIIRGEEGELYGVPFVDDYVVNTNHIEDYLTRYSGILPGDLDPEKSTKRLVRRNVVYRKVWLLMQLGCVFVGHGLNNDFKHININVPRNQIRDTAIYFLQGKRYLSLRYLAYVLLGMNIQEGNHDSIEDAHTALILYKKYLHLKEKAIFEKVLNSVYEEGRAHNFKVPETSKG
The series is described as above. The conditions noted are these: both partners purified.

The target of series [5] is T2, ctPan3 PKC (Chaetomium thermophilum, UniProt G0S0Y3 205-640).
T2 sequence: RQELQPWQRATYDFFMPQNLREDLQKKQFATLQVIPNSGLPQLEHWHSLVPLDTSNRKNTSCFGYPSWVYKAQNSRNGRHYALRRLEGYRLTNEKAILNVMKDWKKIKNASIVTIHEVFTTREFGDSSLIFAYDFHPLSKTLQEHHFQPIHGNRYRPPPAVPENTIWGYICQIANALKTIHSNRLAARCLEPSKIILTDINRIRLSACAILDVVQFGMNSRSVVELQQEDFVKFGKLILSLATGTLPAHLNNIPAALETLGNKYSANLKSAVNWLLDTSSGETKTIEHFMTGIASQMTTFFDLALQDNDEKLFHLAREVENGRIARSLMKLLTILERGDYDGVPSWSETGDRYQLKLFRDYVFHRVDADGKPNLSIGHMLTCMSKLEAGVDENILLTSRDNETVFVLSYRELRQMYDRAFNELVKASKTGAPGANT
The series can be described thus: fluorescence polarization; 1 mM Mg2+; possible G-quadruplex complicates interpretation; FP: 10 mM Tris pH 8.0, 50 mM NaCl, 1 mM MgCl2, 5 mM beta-mercaptoethanol, 20 nM RNA, temperature not stated; EMSA: deadenylation assay buffer (composition not in material), 0.1-3 uM complex, 40 ng RNA in 10 ul, 15 min RT; NMR: 150 uM protein, 150 uM RNA (HSQC). As to conditions: protein: recombinant, tags: GST-TEV construct (pGEX-TEV), chain copies: 2, label: 5' Cy3.

In series [6] the target is T2, ctPan3 PKC. Briefly: fluorescence polarization; 1 mM Mg2+; FP: 10 mM Tris pH 8.0, 50 mM NaCl, 1 mM MgCl2, 5 mM beta-mercaptoethanol, 20 nM RNA, temperature not stated; EMSA: deadenylation assay buffer (composition not in material), 0.1-3 uM complex, 40 ng RNA in 10 ul, 15 min RT; NMR: 150 uM protein, 150 uM RNA (HSQC). The conditions noted are these: protein: recombinant; tags: GST-TEV construct (pGEX-TEV); chain copies: 2; label: 5' Cy3. (In fluorescence polarisation assays a small probe gives low polarisation when free and higher when bound to something large.)

In series [7] the target is T3, scPan3 zinc finger (Saccharomyces cerevisiae, UniProt P36102 1-41).
T3 chain: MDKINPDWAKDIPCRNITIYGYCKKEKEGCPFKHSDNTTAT
The series can be described thus: NMR titration; Zn2+; apparent Kd per residue: 62 ± 4, 93 ± 11, 100 ± 13 (peaks of Trp8, Ala9, Asn16); FP: 10 mM Tris pH 8.0, 50 mM NaCl, 1 mM MgCl2, 5 mM beta-mercaptoethanol, 20 nM RNA, temperature not stated; EMSA: deadenylation assay buffer (composition not in material), 0.1-3 uM complex, 40 ng RNA in 10 ul, 15 min RT; NMR: 150 uM protein, 150 uM RNA (HSQC). The conditions noted are these: protein: recombinant; tags: lipoyl domain/His fusion removed by TEV.

Series [8] has as its target T3, scPan3 zinc finger. The series can be described thus: NMR chemical shift perturbation; Zn2+; negligible changes; FP: 10 mM Tris pH 8.0, 50 mM NaCl, 1 mM MgCl2, 5 mM beta-mercaptoethanol, 20 nM RNA, temperature not stated; EMSA: deadenylation assay buffer (composition not in material), 0.1-3 uM complex, 40 ng RNA in 10 ul, 15 min RT; NMR: 150 uM protein, 150 uM RNA (HSQC). As to conditions: protein: recombinant; tags: lipoyl domain/His fusion removed by TEV.

The target in a further series is ctPan2 E899A;ctPan3 PKC (Chaetomium thermophilum;Chaetomium …, UniProt G0SAK8;G0S0Y3 1-1170;205-640, E899A|). Briefly: fluorescence polarization; 1 mM Mg2+; FP: 10 mM Tris pH 8.0, 50 mM NaCl, 1 mM MgCl2, 5 mM beta-mercaptoethanol, 20 nM RNA, temperature not stated; EMSA: deadenylation assay buffer (composition not in material), 0.1-3 uM complex, 40 ng RNA in 10 ul, 15 min RT; NMR: 150 uM protein, 150 uM RNA (HSQC). As to conditions: protein: recombinant;recombinant; tags: Strep-II, His;GST-TEV construct (pGEX-TEV); copies: 1;2; label: 5' Cy3.

For the molecule “ctPan3 pseudokinase/C-terminal domain (PKC, residues 205–640), purified from E. coli (from UniProt G0S0Y3 205-640) (domain or fragment)”, in series [1], the Kd came out at 50 nM, the dH is -30 kcal/mol and the stoichiometry N (Pan2 chain per Pan3 dimer) is 1. Moreover, the Kd in [2] amounted to 10 nM.

B1: Saccharomyces cerevisiae Pan3 (scPan3), full length, of the recombinant scPan2–Pan3 complex (natural protein, UniProt P36102 1-679, looked up)
chain: MDKINPDWAKDIPCRNITIYGYCKKEKEGCPFKHSDNTTATTINDVPPPIDVGEATTPTMTSVPKFNAKVSASFTPMTVGSDSLTTVTNTTSAATNATGNIAMAATSATASTVNPMINPIVNSSLVNNNNNNSNISISIPTTASSSNYDPFNAPIFTPSSTSSIHTNANAHSFPFPSIANSGGININATDDNSNNMSMANNVPPPMQPPPIESSNLKYPRIYPPPHSLLQYHLYAPEQPSSLKSLLKPNERSADQLFIPNNIREDLTKKNLSILQVFPSSGKVIPSIVQDYFNLVPLNFNNNDFLNKTTLFKVFSNYDGKAYVLKRLPNIDKSMNPNKISKIYQIWSKINCTNLIKFRDIFQTTKFGDLSICLVFDYYPNSLSLYDYHFVNFPKFPITNNYLWIYLVQLTNVINSIHSQNLSIGNTLNWRKVLITGDPGRIKLSHCNFMDLLFNDDTDTVVSSGGSTIEGQQQLDYKYLGELLFNLSINIENSNNNTAPKEYRLEEITPQSIDDMRQIDDKFKDVLKYLISDNGDSKKSIHDLTSHFYDKMFMVLESSQTYTEYMESVLSRELENGRLFRLVNKLNCIFGRIESRIDINWSESGTKFPIILFYDYVFHQVDSNGKPIMDLTHVLRCLNKLDAGIQEKLMLVTPDELNCIIISYKELKDLIESTFRSITQ
notes: Pan3, Saccharomyces cerevisiae; Two copies stand in the scPan2–Pan3 heterotrimer by nanoESI-MS
By stoichiometry N is commonly meant the number of molecules, sites or subunits per partner or assembly. On to B1, for which the binding result in [3] is given as “binds”. For the same molecule, in series [4], the “stoichiometry N” value is 2 scPan3 per scPan2.

For GGGGGGGGGGGGGGG (ssRNA) [Cy3-G15 RNA], in the series with ctPan3 PKC [5], the Kd worked out at 550 ± 50 nM.

As to UUUUUUUUUUUUUUU (ssRNA) [Cy3-U15 RNA], in the series with ctPan3 PKC [6], the Kd was determined as 1600 ± 600 nM.

Turning to AAAAAAAAAAAAAAA (ssRNA) [polyA15 RNA (NMR)], in the series with scPan3 zinc finger [7], the Kd was approximately 77500 nM.

Take CCCCCCCCCCCCCCC (ssRNA) [Cy3-C15 RNA]: the Kd in the series with ctPan3 PKC [6] is 2200 ± 1700 nM.

Turning to CCCCCCCCCCCCCCC (ssRNA) [C15 RNA (NMR)], the binding result in the series with scPan3 zinc finger [8] is “no binding”.

As for UUUUUUUUUUUUUUU (ssRNA) [U15 RNA (NMR)], the binding result with scPan3 zinc finger [8] is recorded as “no binding”.

AAAAAAAAAAAAAAAAAAAAAAAAA (ssRNA) [Cy3-A25 RNA]: the Kd in the series with ctPan3 PKC [6] was determined as 620 ± 60 nM; with ctPan2 E899A;ctPan3 PKC, 270 ± 20 nM.

With AAAAAAAAAAAAAAA (ssRNA) [Cy3-A15 RNA], the Kd with ctPan3 PKC [6] is 2100 ± 1400 nM.
